Values quoted from earlier work, collected in article PMC10480133.

Target: GRGDSPK peptide

- Kd: 12.2 nM
Substance: Integrin αvβ3 (from UniProt P06756)
